According to paper PMC11098746 (2024):

Columns and labels:
Assay in all cases: AVEXIS screen signal:noise (double-corrected)
[1] = molecular target: T1, ADP315
T1 chain: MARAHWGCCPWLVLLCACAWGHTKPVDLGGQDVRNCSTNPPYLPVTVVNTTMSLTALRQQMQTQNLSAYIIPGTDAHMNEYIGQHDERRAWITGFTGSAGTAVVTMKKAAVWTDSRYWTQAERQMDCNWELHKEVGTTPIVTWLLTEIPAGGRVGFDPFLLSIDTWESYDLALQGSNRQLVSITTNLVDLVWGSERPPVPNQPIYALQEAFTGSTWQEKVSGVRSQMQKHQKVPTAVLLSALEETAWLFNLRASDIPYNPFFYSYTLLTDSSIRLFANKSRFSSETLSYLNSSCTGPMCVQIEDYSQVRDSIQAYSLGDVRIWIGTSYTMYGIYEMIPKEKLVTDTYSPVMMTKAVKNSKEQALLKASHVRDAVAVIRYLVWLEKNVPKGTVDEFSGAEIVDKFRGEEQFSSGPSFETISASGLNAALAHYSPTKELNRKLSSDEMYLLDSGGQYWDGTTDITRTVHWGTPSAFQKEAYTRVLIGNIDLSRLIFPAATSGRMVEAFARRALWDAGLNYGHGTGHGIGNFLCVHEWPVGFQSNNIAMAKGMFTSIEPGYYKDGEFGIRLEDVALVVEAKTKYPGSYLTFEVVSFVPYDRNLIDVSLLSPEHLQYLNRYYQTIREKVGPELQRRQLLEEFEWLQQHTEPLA

[2] = molecular target: T2, ADP293
T2 chain: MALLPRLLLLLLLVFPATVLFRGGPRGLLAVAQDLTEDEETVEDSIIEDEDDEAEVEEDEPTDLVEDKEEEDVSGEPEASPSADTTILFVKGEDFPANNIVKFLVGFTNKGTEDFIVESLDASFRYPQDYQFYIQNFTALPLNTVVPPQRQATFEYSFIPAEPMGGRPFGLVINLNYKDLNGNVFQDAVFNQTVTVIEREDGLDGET

[3] = molecular target: ADP369
[4] = molecular target: T3, ADP269
T3 chain: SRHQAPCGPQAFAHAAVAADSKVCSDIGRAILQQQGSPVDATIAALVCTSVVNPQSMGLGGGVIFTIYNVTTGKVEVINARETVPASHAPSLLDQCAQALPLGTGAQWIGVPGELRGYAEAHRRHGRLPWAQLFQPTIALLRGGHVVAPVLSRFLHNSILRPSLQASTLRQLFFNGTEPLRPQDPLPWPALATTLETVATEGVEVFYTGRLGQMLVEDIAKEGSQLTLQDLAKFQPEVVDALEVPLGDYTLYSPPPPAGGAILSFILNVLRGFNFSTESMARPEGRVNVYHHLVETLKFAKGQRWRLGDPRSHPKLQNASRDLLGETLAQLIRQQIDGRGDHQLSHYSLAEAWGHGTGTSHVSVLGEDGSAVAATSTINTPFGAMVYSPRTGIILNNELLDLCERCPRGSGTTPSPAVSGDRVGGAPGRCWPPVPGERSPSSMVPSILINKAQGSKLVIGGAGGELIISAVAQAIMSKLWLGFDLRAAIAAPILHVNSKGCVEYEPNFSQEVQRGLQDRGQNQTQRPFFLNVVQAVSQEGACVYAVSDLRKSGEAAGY

[5] = molecular target: T4, ADP339
T4 chain: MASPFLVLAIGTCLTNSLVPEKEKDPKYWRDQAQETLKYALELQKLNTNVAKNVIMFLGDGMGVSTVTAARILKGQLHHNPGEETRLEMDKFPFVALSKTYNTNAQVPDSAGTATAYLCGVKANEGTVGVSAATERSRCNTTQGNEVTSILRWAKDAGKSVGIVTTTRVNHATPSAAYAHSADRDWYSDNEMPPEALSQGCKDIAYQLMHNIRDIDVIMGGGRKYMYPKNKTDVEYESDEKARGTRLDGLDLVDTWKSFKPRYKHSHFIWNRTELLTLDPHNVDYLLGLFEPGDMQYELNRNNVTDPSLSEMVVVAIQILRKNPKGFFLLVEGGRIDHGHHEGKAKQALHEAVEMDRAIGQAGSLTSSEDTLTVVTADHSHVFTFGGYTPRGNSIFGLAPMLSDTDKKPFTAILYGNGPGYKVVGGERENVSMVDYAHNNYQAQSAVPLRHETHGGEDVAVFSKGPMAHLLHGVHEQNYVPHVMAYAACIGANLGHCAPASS

B1: ADP175 (protein)
chain: KVYQGQFYLKKNEKIHYLTKFSCNIGTCQFSIKMKLRDNIAAKLLNNYYKLNNKALKEMENDKDDGNNHNNNKYDDDNNNNNNRANKLLHMDYDNAYYVLSNQDLEYIPQRITLMQDIEQRYVNKNDKCYAFGNLKNSHMFNIPFYFKYSDLVNSKTYNLKNFINNKYSMSFNAIHSELKNNKLLQSEILNYGPILNEKNSNYAYKEIYAKTTHRVHVWFLMFDDCYDNFIRNLKLNIKTKLAYWEYLLHASKKFDISSLNDMDIKQDTSYNDFQNEETEKDIYSKENINNNNNNNMNNNMNEKKNKAIFYKSFNFDKITLLENPKRFLFLEEQFTKSEINDISFFLKYYQFKKMKNFNNMYNNLYKNGYYEQVIDYIYQNEGFHIEYEVNIFQTNKAHFSYE
modifications: bait human Fc-tagged dimer; N-glycosylation sequons mutated in Plasmodium baits
B1 gave a binding score [1] of 5.79.

B2: ADP188 (protein)
chain: QDEKSVKNICVCDFTDKLNFLPLEKTKILCELKPQYGEDIKIIANKEYEINCMNNAKVFCPLKDTFINNANIKLYSPKLHFEIKDITHKGKNAALYYLKIDEEASDIFFSCSIKPKQVSGLLEGEVRVNLKKHINEEYSIFNEEEDVHVCDFSKGNLDITPSAGFYLKNSRNVACIYRVIPNKLFLIKLPKLDIVTEKLLPSIVNCLSEFSFINFALKHVQEGDNYISFNVIFGEFKKHFNLACSLDLSDFQQEPCNLGKTANIAFIFSK
modifications: bait human Fc-tagged dimer; N-glycosylation sequons mutated in Plasmodium baits
In the case of B2, the binding score [2] is reported as 5.5.

B3: ADP186 (protein)
chain: YNLNNDLSKNNNFALNTYVRKDDVEDDSKNEIVDNIQKMVDDFSDDIGFVKTSMREVLLDTEASLEEVSDHVVQNIAKYSLTIEEKLNLFDGLLEEFIENNKGLISNLAKRQQKLKGDKIKKVCDLILKKLKKLENVNKLIKYKIILKYGNKDNKKEMIQTLKNEEGLSDDFKNNLANYETEQNNDDIKEIELVNFISTNYDKFVVNLEDLNKELLKDLNMALS
modifications: bait human Fc-tagged dimer; N-glycosylation sequons mutated in Plasmodium baits
With B3 the binding score [3] was 5.22.

B4: ADP191 (protein)
chain: IYYCNDNILENANNDDSTKDINNINKNSANKAKSEKTSNYNNDQYNIDDAYNEDEENDEEEGDDDENDHFEVPINCAGGNCFDSMDDINKIIDNKKKKMKYRRRRGKAIQIIKPNVNHAELIIIEENLEIFKRIDKPIAIVSVLGDMHTGKSFLLNLLNEHVIPDINKANKYIENGFKVGNDITASTYGIWIWSEPIRINVKKLKKIYEYINENFANFIKSYEYEKDEYNEEIIDLLNLYKTDDWISNVEELNLADTDEVNLILMDTQGLNSPNVNKRYDEILYALTNLISTDIIFLTMKMINNKDLEFIENIAKDANLFMLRAYTRSSGSTFSIKKNNFHKILDTLNNNLENNALILESIASKNLMWVVHDFSQRLDVRKGKLWLDILLNSDRRDLDIKYWKKIISNKAKDKHDAYTTKKQKIAYLTYNENSASGLLPNNNNNNNNANDASSNYKLNILYKNIDCVLLRNMYHNKEFDFTKANINDLNEEYKNDVLLLRYKIYLRALLFPKKMYSDVQINNIINKIRKEQKLREEQEKNKDNKKNDANNQANDLNSNKDETSGSQVTNRFMSGHDVYDFITFLVKSANQNLFTNVNQFFKHFKINRAEISRNDLIFLYKKYLLQFMENEDVEFISNLNDENDDLFLQKEGNNAAVNHDENSDADSLFNDHDENMQLKEHNIKDGEDNTHQKKDSYKLPPLLNEIKKYEELIREQILNIWYKYTESDFHDEEEKELIKDIENNLYERLDQIKIEMLELGEMNIRKFCKIACEDALQIVVEDIKMKSDQYPIKQKDLTTFFESVSYNLIKYLEKKLSKNSDKLDLIYYKDNICSPLINNAFQEFYFLKKKNIALNENRLKSYFSNAVEKGKEVFEVLAENTENIAEYFKNKNMFYTVLDKWTSEAINTYTLTLSDFAKEEKEINDEYLNVLNNDIKLLKQKAMEKWHNHCRDKTSALYNMHKSNLKKNFLENFNFPLDELVLQDIFLNLKGQEELKYMDIYCANEDSWNSEYKNFLKLTDEIFQFIKDENLKAIQITCQQPLDELKNGIKGEIHKYYLWSSLKSTLYNRALIVLSSNIENIYIKNQRENKIQSNLDEKYNNKNKNYKRISKDLMSKVINRWLNNDIYNVYYP
modifications: bait human Fc-tagged dimer; N-glycosylation sequons mutated in Plasmodium baits
With B4 the binding score [4] was 9.74.

B5: ADP181 (protein)
chain: SSNDKNKINKNNMPLQRGASNLKDINIHNVEKKSNMESVNNNINNAACSKNLNANKVPNVAHTGVNKKGETKNEEVEKEENENEEIEKEEIENEENQQNEEDENEENQQNEEDENEENQQMNVNVDVSAEKKNKELPEEKKELQKNSEKNINKEVIKDSNKDNTFNFHKNINTAFNKNKNIYNNNNNNNNNNKAFIEKKEEAIDMKKTHCSNNNKMCKYNNMNNHMSTNKNNNQIFEESKQNVNKPIYNLKSLGNNAFKNDEKYNENDYKNNHDDDKKKYTDDSNEENIYEERNQKILLIHLLKNIKELLNRQRQNFNNFLSFLSENYQSYEKFYKSQKYQNGKNYIDKLDQQGELKNVAVVTHSFLDMSKAANGKKDKNGVFVKLMNDQNDDGDDTKDGDDTKDEDDHKNEDDHKNEDDHKNEDDHKNEDDHKNGDDNKNGDDHKNGDDNKNGDDDNGKKSHDISDIKNIIDTILQSDDITDEQKKYLEIIKKILDLEEDVLNKEKEQLQLNKNIIEVLMGKSDELRNIAVNLKNGNGDNEASQRVDLAQNIVSNLLNFAVQLKNTGNIVYNNIQGQGELLQSIEKNIDKAENDLKKSTSVNTAFTPKNVPNTEQNDQETQTDDDINDADIDENNNANDKNNCHMYKKNNCHMYKKNNCKKYFLNSHYNNYLCKKQKKYNKNDMGNKQKDNKKFKLNEAMKNHFYNIFVKETVMLKKLYKVLFELF
modifications: bait human Fc-tagged dimer; N-glycosylation sequons mutated in Plasmodium baits
B5 gave a binding score [5] of 6.19.

B6: ADP246 (protein)
chain: GLCKPCTLENHYCEGGLESDITFNNKLIKGKFHTLPKKCPRGLGIPNIIKERNSINNCLCIHGKVQRTTENKNVECFPCPPNTFKENEYDNSCSGACPPFSTTFVGSSYENQCFCKNNYYLVSTDDENDANGNSINNNKNIYNNNNIYNNNNNNNNNNNNNFNNKADVKKKSCKICPIGAICNRGFNIYIYLKLLNDRSYNNINVIDHETPFPKYGYYAVYREKTNPAKSWDTLDDSAILNYVYPYHKLLLFIQKNIQKGNYFFLEKGNKFFLNDDFVEKMNEKSKYEEENANKFVTKSEIIHNVNTNNLKGKHNTLNNNNNNNNINKASSFLNQNNYNNDIIQLSSYENNPFKNLASTSEVSSNNNVISFIQNNDKTNNAANDNNIENLVDIFNKYVQEAKELQIQNRKFERIPDIHPCTIPNRCLGTLINLCSDGSTGYQCNNCAKNYDMSYFKSKCKKCQNLFYE
modifications: bait human Fc-tagged dimer; N-glycosylation sequons mutated in Plasmodium baits
B6 gave a binding score [5] of 15.5.
